What was measured:
murine FAP = target: T1, murine FAP (Mus musculus, UniProt P97321); assay: Binding to murine FAP
T1 sequence (P97321 1-761): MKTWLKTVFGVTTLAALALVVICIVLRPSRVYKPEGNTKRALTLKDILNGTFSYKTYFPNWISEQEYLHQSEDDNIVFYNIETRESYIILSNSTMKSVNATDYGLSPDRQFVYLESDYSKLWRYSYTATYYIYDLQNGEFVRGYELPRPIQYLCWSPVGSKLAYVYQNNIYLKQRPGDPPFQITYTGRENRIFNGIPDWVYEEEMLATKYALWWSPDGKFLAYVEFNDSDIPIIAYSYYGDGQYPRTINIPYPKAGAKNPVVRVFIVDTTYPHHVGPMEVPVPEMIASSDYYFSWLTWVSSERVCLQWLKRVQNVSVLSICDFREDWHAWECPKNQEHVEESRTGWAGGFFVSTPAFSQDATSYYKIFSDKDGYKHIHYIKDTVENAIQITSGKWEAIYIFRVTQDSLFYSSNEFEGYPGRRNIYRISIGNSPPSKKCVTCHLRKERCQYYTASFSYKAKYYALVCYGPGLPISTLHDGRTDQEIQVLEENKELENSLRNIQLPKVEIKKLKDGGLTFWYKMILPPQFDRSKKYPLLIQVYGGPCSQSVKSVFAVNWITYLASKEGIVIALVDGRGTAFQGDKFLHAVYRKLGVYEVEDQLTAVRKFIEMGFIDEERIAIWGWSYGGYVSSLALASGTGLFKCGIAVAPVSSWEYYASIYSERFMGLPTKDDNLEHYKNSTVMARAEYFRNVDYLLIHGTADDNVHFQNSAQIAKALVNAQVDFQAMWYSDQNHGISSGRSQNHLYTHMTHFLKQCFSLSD

[1] = Stability at 40° C., purity by SEC; type: physicochemical; conditions: for Purity by SEC, %: mutant antibody storage stability
Procedure: The purified antibodies were concentrated, and sterile filtration was performed. The purity of the antibodies was determined by size exclusion chromatography (SEC). Specifically, the samples were loaded at 20 μg onto a TSK G3000SWXL column using 100 mM sodium phosphate+100 mM Na2SO4 (pH 7.0) as a running buffer for 30 min. The collected effluent was measured using the Agilent 1220 HPLC system and the data were analyzed using OpenLAB software.
The huF19-LG antibody was tested for stability at 40° C. ELISA (see Example 1.2) and SEC (see Example 1.1) were conducted at 0 weeks (OW), 2 weeks (2W), or 4 weeks (4W) with the results shown as follows:
The activity and purity of the molecule were determined by SEC after storage. See Example 1.5 for the specific procedures.

[2] = tested on: cynomolgus FAP protein expressed on 293T cells; assay: Cell binding assay by flow cytometry, 293T-cynomolgus FAP cells
Procedure: (§1) Whether the humanized antibody of the present disclosure can bind to human FAP protein stably expressed on the surface of 293T cells was determined by a cell binding assay. Firstly, the sequences encoding human FAP protein (NM_004460.2, SEQ ID NO: 31) and cynomolgus FAP (XM_005573320.2, SEQ ID NO: 32) were cloned into expression vector PIRES-puro3 (Clontech, Cat #631619) […]. The vectors were used to transfect 293T cells. […]
(§2) The human FAP antibodies (huF19-LG and sibrotuzumab) were 4-fold serially diluted from a starting concentration of 200 nM to a total of 8 concentrations and added to the cells for co-incubation at 4° C. for 30 min. […] The cells were washed twice with PBS and then resuspended, and finally, fluorescence signals were detected using the […] (BD Bioscience) flow cytometer.
(§3) Whether the mutant antibody in the present disclosure can bind to human or cynomolgus FAP protein stably expressed on the surface of 293T cells was determined by a cell binding assay. […] The cells were washed twice with PBS and then resuspended, and finally, fluorescence signals were detected using the […] (BD Bioscience) flow cytometer.

[3] = target: T2, human FAP protein expressed on 293T cells (Homo sapiens, UniProt Q12884); assay: Cell binding assay by flow cytometry, 293T-human FAP cells
T2 construct: expressed in transfected cells; host or cells: 293T cells, PIRES-puro3 vector, puromycin selection
T2 sequence (Q12884 1-760): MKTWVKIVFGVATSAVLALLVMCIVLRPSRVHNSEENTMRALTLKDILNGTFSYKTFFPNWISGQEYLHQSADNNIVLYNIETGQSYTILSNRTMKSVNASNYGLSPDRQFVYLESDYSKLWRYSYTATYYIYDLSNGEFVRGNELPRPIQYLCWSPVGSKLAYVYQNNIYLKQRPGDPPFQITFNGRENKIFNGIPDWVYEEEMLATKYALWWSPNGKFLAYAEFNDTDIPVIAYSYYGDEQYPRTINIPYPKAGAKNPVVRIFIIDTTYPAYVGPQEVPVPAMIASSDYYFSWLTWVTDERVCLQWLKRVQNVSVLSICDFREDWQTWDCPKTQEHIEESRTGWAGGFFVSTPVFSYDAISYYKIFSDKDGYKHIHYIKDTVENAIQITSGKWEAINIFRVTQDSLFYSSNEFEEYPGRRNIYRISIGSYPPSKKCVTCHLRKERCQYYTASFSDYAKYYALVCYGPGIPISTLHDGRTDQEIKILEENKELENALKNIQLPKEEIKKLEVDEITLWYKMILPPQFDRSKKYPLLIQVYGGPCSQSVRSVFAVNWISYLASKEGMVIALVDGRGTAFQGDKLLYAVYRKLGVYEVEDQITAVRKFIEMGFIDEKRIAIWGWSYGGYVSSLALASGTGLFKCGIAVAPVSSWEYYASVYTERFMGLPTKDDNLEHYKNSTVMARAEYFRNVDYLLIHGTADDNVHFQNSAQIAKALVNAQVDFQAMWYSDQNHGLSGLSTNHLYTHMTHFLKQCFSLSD
Procedure: as §1, §2
as §3, with “cytometer. […]” for “cytometer.”

cynomolgus FAP protein expressed on 293T cells, sequence (as listed by the source): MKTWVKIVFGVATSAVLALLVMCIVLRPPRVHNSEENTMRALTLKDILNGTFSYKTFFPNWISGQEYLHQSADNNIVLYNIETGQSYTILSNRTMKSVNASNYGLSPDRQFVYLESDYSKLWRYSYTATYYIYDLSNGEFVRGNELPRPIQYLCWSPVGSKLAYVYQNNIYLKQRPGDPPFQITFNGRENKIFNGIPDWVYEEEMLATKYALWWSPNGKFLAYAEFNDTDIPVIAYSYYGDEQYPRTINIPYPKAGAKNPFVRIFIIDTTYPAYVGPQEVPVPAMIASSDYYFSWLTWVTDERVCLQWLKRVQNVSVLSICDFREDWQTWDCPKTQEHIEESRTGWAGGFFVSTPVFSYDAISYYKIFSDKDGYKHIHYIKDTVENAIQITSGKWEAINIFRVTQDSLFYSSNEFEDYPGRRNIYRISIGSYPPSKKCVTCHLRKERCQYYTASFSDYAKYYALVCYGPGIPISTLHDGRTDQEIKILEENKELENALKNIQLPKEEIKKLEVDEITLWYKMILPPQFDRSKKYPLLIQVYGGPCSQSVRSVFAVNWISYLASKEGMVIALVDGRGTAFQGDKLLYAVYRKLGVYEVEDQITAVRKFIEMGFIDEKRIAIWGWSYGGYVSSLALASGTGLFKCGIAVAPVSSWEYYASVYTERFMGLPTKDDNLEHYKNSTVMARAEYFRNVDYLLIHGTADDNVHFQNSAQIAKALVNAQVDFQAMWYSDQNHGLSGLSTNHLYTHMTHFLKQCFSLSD

binding to murine protein (murine FAP): cannot bind to murine protein
B1: huF19-LG-NGR: mutant of huF19-LG with G56R (Kabat) in heavy chain CDR2; VH SEQ ID NO: 21, VL SEQ ID NO: 15 (antibody, V domains shown)
VH: QVQLVQSGAEVKKPGASVKVSCKASGYTFTEYTIHWVRQATGQGLEWIGGINPNNRIPNYNQKFKGRATMTVGTSISTAYMELSSLRSEDTAVYFCARRRIAYGYDEGHAMDYWGQGTLVTVSS
VL: DIQMTQSPSSLSASVGDRVTITCKSSQSLLYSRNQKNYLAWFQQKPGKAPKLLIFWASTRESGVPSRFTGSGFGTDFTLTISSLQPEDFATYYCQQYFSYPLTFGQGTKLEIK
change in purity by SEC during storage ([1]; 0 to 4 weeks): did not exhibit significant changes in purity
Purity by SEC, % ([1]; 0 weeks): 99.2%
Purity by SEC, % ([1]; 2 weeks): 99.1%
Purity by SEC, % ([1]; 4 weeks): 99.1%
binding to cynomolgus FAP protein expressed on engineered 293T cells (FACS) [2]: can bind to human FAP protein and cynomolgus FAP protein expressed on engineered 293T cells, with the binding capacities comparable to those of the antibody before mutation
binding to human FAP protein expressed on engineered 293T cells (FACS) [3]: can bind to human FAP protein and cynomolgus FAP protein expressed on engineered 293T cells, with the binding capacities comparable to those of the antibody before mutation

— patent publication US20260265409A1, “ANTIBODY FUSION PROTEIN TARGETING FAP AND TGFbeta, AND USE THEREOF” (NANJING LEADS BIOLABS CO., LTD., priority 2022, published 2026)
